Source: patent publication US20250059282A1

Legend:
[1] = target: Human PD-L2-HIS (human) (UniProt Q9BQ51); assay: Octet binning; competitor BiPDL4-14
[2] = target: Human PD-L2-HIS (human) (UniProt Q9BQ51); assay: Octet binning; competitor MIH18
[3] = target: Human PD-L2-HIS (human) (UniProt Q9BQ51); assay: Octet binning; competitor PDL2-13 (column 7)
[4] = target: Human PD-L2-HIS (human) (UniProt Q9BQ51); assay: Octet binning; competitor BiPDL4-11
[5] = target: Human PD-L2-HIS (human) (UniProt Q9BQ51); assay: Octet binning; competitor PDL2-21
[6] = target: Human PD-L2-HIS (human) (UniProt Q9BQ51); assay: Octet binning; competitor PDL2-13 (column 11)
[7] = target: Human PD-L2-HIS (human) (UniProt Q9BQ51); assay: Octet binning; competitor PDL2-23
[8] = target: Human PD-L2-HIS (human) (UniProt Q9BQ51); assay: Octet binning; competitor 24F.10C12
[9] = target: Human PD-L2-HIS (human) (UniProt Q9BQ51); assay: Octet binning; competitor BiPDL4-12
[10] = target: Human PD-L2-HIS (human) (UniProt Q9BQ51); assay: Octet binning; competitor BiPDL4-13
[11] = target: PD-1 (on Jurkat T Cell)
[12] = target: PD-1 (on Jurkat T Cell); remark: listed apart in the source

Sequence of Human PD-L2-HIS (human) (Q9BQ51 20-220): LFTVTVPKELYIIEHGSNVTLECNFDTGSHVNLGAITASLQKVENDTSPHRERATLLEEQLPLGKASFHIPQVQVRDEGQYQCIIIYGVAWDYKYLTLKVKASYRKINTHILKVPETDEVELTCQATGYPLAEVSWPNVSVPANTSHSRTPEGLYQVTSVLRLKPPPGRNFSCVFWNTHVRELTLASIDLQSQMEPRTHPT

% of unblocked Ab2 binding signal [1] [%]	% of unblocked Ab2 binding signal [2] [%]	% of unblocked Ab2 binding signal [3] [%]	% of unblocked Ab2 binding signal [4] [%]	% of unblocked Ab2 binding signal [5] [%]	% of unblocked Ab2 binding signal [6] [%]	% of unblocked Ab2 binding signal [7] [%]	% of unblocked Ab2 binding signal [8] [%]	% of unblocked Ab2 binding signal [9] [%]	% of unblocked Ab2 binding signal [10] [%]	EC50 (read off the curve); Fold induction of luciferase, Promega: CHO-PD-L1/PD-L2 dual cells with PD-1 Jurkat reporter cells [11] [nM]	EC50 (read off the curve); Luc Activity, Promega CHO-PDL1/PD-L2 dual cells with NFAT-Luc Jurkat T cells [12] [nM]	Substance
62.8	63.8	7.11	50.5	5.24	6.3	5.98	4.99	57.5	56.9	–	–	24F.10C12 (antibody)
–	–	–	–	–	–	–	–	–	–	0.7	2	Keytruda (antibody)
63.4	5.73	73.7	47.9	74.7	82.5	70.3	71.4	60.6	57	–	–	MIH18 (antibody)
